Results published in article PMC3954793, “SHP-2 Binds to Caveolin-1 and Regulates Src Activity via Competitive Inhibition of CSK in Response to H2O2 in Astrocytes” (PLoS ONE, 2014).
Ends that are not written are not given here.

Legend:
[1] = target: T1, recombinant SHP-2 protein ( (human SHP-2 cloned for the …, UniProt Q06124 1-593)); assay: bead-based flow cytometric binding assay; caveolin-1 (1–50) peptide conjugated to carboxyl beads with EDC; incubated with recombinant CSK or SHP-2 protein (1–10 µg) for 1 h at RT; detected with anti-CSK or anti-SHP-2 and fluorescent secondary antibody; settings: both partners purified
T1 construct: SHP-2 (PTPN11); the in-house construct holds the protein coding region of human SHP-2 in pGEX-6P-1
T1 sequence (looked up): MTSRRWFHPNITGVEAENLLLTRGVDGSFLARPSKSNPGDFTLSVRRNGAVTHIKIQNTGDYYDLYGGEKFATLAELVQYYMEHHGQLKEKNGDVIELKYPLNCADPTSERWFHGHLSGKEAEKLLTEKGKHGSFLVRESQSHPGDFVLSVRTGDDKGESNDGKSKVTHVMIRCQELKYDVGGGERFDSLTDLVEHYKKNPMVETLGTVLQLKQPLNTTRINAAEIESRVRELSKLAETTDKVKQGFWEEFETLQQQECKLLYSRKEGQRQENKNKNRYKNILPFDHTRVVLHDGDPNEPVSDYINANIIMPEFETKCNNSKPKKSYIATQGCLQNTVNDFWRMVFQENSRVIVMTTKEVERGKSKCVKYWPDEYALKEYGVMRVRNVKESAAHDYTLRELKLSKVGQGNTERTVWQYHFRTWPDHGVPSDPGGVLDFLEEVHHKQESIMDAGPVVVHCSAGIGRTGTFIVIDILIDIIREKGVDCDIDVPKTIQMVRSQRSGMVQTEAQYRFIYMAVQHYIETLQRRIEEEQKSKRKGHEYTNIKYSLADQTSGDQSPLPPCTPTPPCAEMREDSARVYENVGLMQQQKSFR

[2] = target: T2, recombinant CSK protein ( (human CSK cloned for the …, UniProt P41240 1-450)); assay: as above; settings: both partners purified
T2 construct: CSK; the in-house construct holds the protein coding region of human CSK in pGEX-6P-1

binding result [1]: binds
binding result [2]: binds
B1: 1–50 mer caveolin-1 peptide (peptide, UniProt Q03135 1-50, looked up)
peptide: MSGGKYVDSEGHLYTVPIREQGNIYKPNNKAMADELSEKQVYDAHTKEID
modifications: not fully specified
notes: caveolin-1 residues 1-50, fifty-amino acid-long synthetic peptide; Conjugated to carboxyl beads with EDC; also called caveolin-1 peptide (1–50); p-caveolin-1 peptide; source: synthetic peptide (PEPTRON)
